The supplement of paper PMC9170038

Test system: MS2 coat protein
Test: apparent KD of MS2 coat protein; designed switch direction (-1 OFF switch, 1 ON switch): 1; higher = weaker reporter binding
Summary of the method: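 Three titration conditions were used: no input, 200 uM small-molecule ligand, and an oligonucleotide input. In each, SNAP-549-labelled MS2 coat protein was raised from 0.7 or 1.5 nM, doubling, to 3 µM over designed RNA switches transcribed on Illumina chips by stalled E. coli RNA polymerase. Curve fits of normalised cluster fluorescence gave values whose per-design median over clusters is the apparent KD.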

[1] = input ligand: microRNA oligo, concentration not stated
[2] = Eterna round: R95, input ligand: FMN 200 uM
[3] = Eterna round: R95, input ligand: microRNA oligo, concentration not stated
[4] = Eterna round: R95, input ligand: none

Row | Sequence | apparent KD of MS2 coat protein (input ligand: FMN 200 uM) | apparent KD of MS2 coat protein [1] | apparent KD of MS2 coat protein (input ligand: none) | apparent KD of MS2 coat protein [2] | apparent KD of MS2 coat protein [3] | apparent KD of MS2 coat protein [4]
1 | AUACAUAUCAGAGGAUAUCACGUCGUUUAGACGUGAGAAGGCUGAUCACACAUGAAUAUUAAUACAUGAGGAUCACCCAUGUAU [SSNG1/14-A3] (Eterna round: R96, puzzle: Same State NG 1) | 0.0137 µM | 0.0134 µM | 0.0209 µM | – | – | –
2 | AUAGUUGCCGAAGGAUAUGAUGAGGAUCACCCAUCAGAAGGUCGGCUAUUGGGUGGACAUGAGGAUCACCCGUGUUCUUUGGUC (Eterna round: R96, puzzle: Same State NG 1) | 0.0306 µM | 0.0225 µM | 0.0323 µM | – | – | –
3 | AUAGUUGCCGAAGGAUAUGAUGAGGAUCACCCAUCAGAAGGUUGGCUAUUGGGUGGACAUGAGGAUCACCCGUGUUCUUUGGUA (Eterna round: R96, puzzle: Same State NG 1) | 0.0503 µM | 0.0475 µM | 0.0821 µM | – | – | –
4 | AUAGUUUCCGAAGGAUAUGAUGAGGAUCACCCAUCAGAAGGUUGGCUAUUGGGCGGACAUGAGGAUCACCCAUGUCUUUCUGUU (Eterna round: R96, puzzle: Same State NG 1) | 0.0127 µM | 0.0107 µM | 0.018 µM | – | – | –
5 | AUAUCCUUUUUAUACAUGAGGAUCACCCAUGUUUUUCUUACGUAGGAUAUCGUUGUUUUUUUUUACGAGAAGGACGUAGAAUGU [JR_SSND3_Sub063] (Eterna round: R96, puzzle: Same State NG 3) | – | 0.0235 µM | – | – | – | –
6 | AUAUGAGAAGCAGGAUAUGCGGAGAAGAAAGAAGCAGAAGGGCUUAUGGGACAACAUGAGGAUCACCCAUGUUCUCUGUGAUGA [AK SSNG1-V2-3] (Eterna round: R96, puzzle: Same State NG 1) | 0.0243 µM | 0.0489 µM | 0.0565 µM | – | – | –
7 | AUAUGAGCUAUGGAGGAUAUCCAUAACAAGACAUGAGGAUCACCCAUGUAAUCAAAACAAUAAUGGGAGAAGGCCAUAGCUCAAU [SS 2 M47] (Eterna round: R96, puzzle: Same State 2) | – | 0.0469 µM | – | – | – | –
8 | AUAUGAGGAGCAGGAUAUGCGGAGAAGAAAGAAGCAGAAGGGCUCAUGGGACGACAUGAGGAUCACCCAUGUACUCCGCGAUGA [AK SSNG1-V2-5] (Eterna round: R96, puzzle: Same State NG 1) | 0.103 µM | 0.52 µM | 1.35 µM | – | – | –
9 | AUGCCAAAUGGAGGAUAUGGAGCCUUAUUGGCUCCAGAAGGUCAAACAUGAGGAUCACCCAUGUGGCAGUGGUCUAAUGACCAC [Eli NG1ss - 45] (Eterna round: R96, puzzle: Same State NG 1) | 0.11 µM | 0.192 µM | 0.368 µM | – | – | –
10 | AUGGUGCAGGUACAGGAUAUGUUGCUCGUAACAUGAGGAUCACCCAUGUACCUAUGAGAUUAAAUGCAGAAGGGUGCACACCACA [Mat - Same State 2 - Mod of UCT - D88] (puzzle: Same State 2) | – | – | – | 0.0408 µM | 0.325 µM | 0.283 µM
11 | AUUAAACAUGAGGAUCACCCAUGUCAACAAAGUCGAGGAUAUGGGCAAAUAAAAUAAGAACCAGAAGGCGUAUAAU [salish99_ss1_r3_077] (puzzle: Same State 1) | – | – | – | 0.0759 µM | 0.363 µM | 0.636 µM
12 | AUUAAACAUGAGGAUCACCCAUGUCAACAAAGUCGAGGAUAUGGGCAAAUAAAAUAAGAUCCAGAAGGCGAAUAAU [salish99_ss1_r3_067] (puzzle: Same State 1) | – | – | – | 0.0557 µM | 0.0168 µM | 0.0195 µM
13 | AUUAAACAUGAGGAUCACCCAUGUCAACAAAGUCGAGGAUAUGGGCAAAUAAAAUAUGAACCAGAAGGCGAAUAAU [salish99_ss1_r3_064] (Eterna round: R96, puzzle: Same State 1) | 0.0329 µM | 0.208 µM | 0.263 µM | – | – | –
14 | AUUAAACAUGAGGAUCACCCAUGUCAACAAAGUCGAGGAUAUGGGCAAAUAAAAUAUGAACCAGAAGGCGAAUAAU [salish99_ss1_r3_064] (puzzle: Same State 1) | – | – | – | 0.0321 µM | 0.22 µM | 0.412 µM
15 | AUUAAACAUGAGGAUCACCCAUGUCAACAAAGUCGAGGAUAUGGGCAAAUAAUAUAAGAACCAGAAGGCGAAUAAU [salish99_ss1_r3_058] (puzzle: Same State 1) | – | – | – | 0.0321 µM | 0.44 µM | 0.275 µM
16 | AUUAAUAAUGCAGGAUAUGAUUAACAUGAGGAUCACCCAUGUGGUGUUGUGAGUAAGGAGAGUGAUCAGAAGGGCAUUUUUUUU [JMF's solution 27] (Eterna round: R96, puzzle: Same State NG 2) | 0.552 µM | 0.374 µM | 0.385 µM | – | – | –
17 | AUUACGAGCGUAGGAUAUGGGAAAGGAAGUGUACCAGAAGGACGAAUACAGCGUCCGGACAUGAGGAUCACCCAUGUAGGACGC [PowerStrip SSNG 1.19] (Eterna round: R96, puzzle: Same State NG 1) | 0.0115 µM | 0.0218 µM | 0.0261 µM | – | – | –
18 | AUUAUGUAUGCAGGAUAUGAUUAACAUGAGGAUCACCCAUGUGGUGUUGUGAGUAAGGAGAGUGAUCAGAAGGGCAUUUUUUUU [JMF's solution 64] (Eterna round: R96, puzzle: Same State NG 2) | 0.555 µM | 0.333 µM | 0.381 µM | – | – | –
19 | AUUAUUUCAUGAGGAUAUGGCACCUUAUUGGUGCCAGAAGGCAUGUCUAUAAGACAUGAGGAUCACCCAUGUUUAAAUUAUAUA [Eli NG1ss - 90] (Eterna round: R96, puzzle: Same State NG 1) | 0.0241 µM | 0.164 µM | 0.181 µM | – | – | –
20 | AUUGCUAGCACAGGAUAUCAUGCGAAAAUUGCGUGAGAAGGGUGGACUCUGUCAUUCACGGAGGACAUGAGGAUCACCCAUGUC [SameState NG1 #80] (Eterna round: R96, puzzle: Same State NG 1) | 0.193 µM | 0.0319 µM | 0.0623 µM | – | – | –
21 | AUUGCUUACGCAGGAUAUGAUGCGAAAAUUGCGUCAGAAGGGUGAAGUAACUCAUUGCAACAGGACAUGAGGAUCACCCAUGUC [SameState NG1 #89] (Eterna round: R96, puzzle: Same State NG 1) | 0.105 µM | 0.25 µM | 0.681 µM | – | – | –
22 | AUUGGGUAACGAGGAUAUCGUUUUUGUUUUCUUCGAGAAGGCGUUAUAGUUUAUUUCUAUUGUUACAUGAGGAUCACCCAUGUU [JR_SSNG1_Sub054] (Eterna round: R96, puzzle: Same State NG 1) | 0.0152 µM | 0.0165 µM | 0.0241 µM | – | – | –
23 | AUUUAACAAGCUUUUUGCUCGUCUUAUAAACAUGAGGAUCACCCAUGUAAUAGCGUGAGAGUAAAUUUAUAAAUAAU [JMF 88] (puzzle: Sensor for hsa-mir-208a) | – | – | – | 0.0157 µM | 0.0425 µM | 0.0147 µM
24 | AUUUCUAGCAUAGGAUAUCAUGCGAAAAUUGCGUGAGAAGGGUGGACGCUGUCAUUCACGGAAGACAUGAGGAUCACCCAUGUC [SameState NG1 #75] (Eterna round: R96, puzzle: Same State NG 1) | 0.0766 µM | 0.0676 µM | 0.0872 µM | – | – | –
25 | AUUUUUAAUGCAGGAUAUGAUUAACAUGAGGAUCACCCAUGUGGUGUUGUGAGUAAGGAGAGUGAUCAGAAGGGCAUUUCUUUU [JMF's solution 82] (Eterna round: R96, puzzle: Same State NG 2) | 0.593 µM | 0.337 µM | 0.54 µM | – | – | –
26 | CAGAGCCCAUGGGCCUGACAUGAGGAUCACCCAUGUGGCUUUGAGGAUAUAAGCGGAAACAGCGCUUAGAAGGCGAAGCCUAAC [Rearisve] (Eterna round: R96, puzzle: Same State NG 3) | 0.157 µM | 0.0141 µM | 0.0419 µM | – | – | –
27 | CAGCGCUGUCGAGAGGAUAUGCGGUGAUGGACAUGAGGAUCACCCAUGUUAGCGACAGCAUCACGGCAGAAGGCUCUAUCGCUGC [Soteed Omei mod 29] (puzzle: Same State 2) | – | – | – | 0.0242 µM | 0.0395 µM | 0.0489 µM
28 | CAGCUCGUGUGAGGAUAUGCCGCCGUUUCGGCUGCAGAAGGUGCUACGUUACAUGAGGAUCACCCAUGUCUCUGUUGUUUCGUC [salish99_SSNG1_r04_962] (Eterna round: R96, puzzle: Same State NG 1) | 0.0286 µM | 0.0191 µM | 0.0318 µM | – | – | –
